Measurements from the RNAGym collection of RNA variant scans (doi:10.7554/elife.90254).

B1: LINE1-mini (parent)
chain: GGCAGAGCUCAACACAGCGUGGCAAAGUGGCUGUGGCUAGACUGCC

Variants of: B1
Experiment: self-cleavage, relative activity (ratio to wild type); higher = more cleavage; in vitro, sequencing; the parent is a self-cleaving ribozyme

Variant	self-cleavage
GGCAGAUCUCAACACAGCGUGGCAAAGUGGCUGUGGCUAGGCUGCC [G7U A41G]	0.09
GGCAGAUCUCAACACAGCGUGGCAAAGUGGCUGUGGCUAGUCUGCC [G7U A41U]	0.21
GGCAGAUCUCAACACAGCGUGGCAAAGUGGCUGUGGCUAGCCUGCC [G7U A41C]	0.24
GGCAGAUCUCAACACAGCGUGGCAAAGUCGCUGUGGCUAGACUGCC [G7U G29C]	0.03
GGCAGAUCUCAACACAGCGUGGCAAAGUAGCUGUGGCUAGACUGCC [G7U G29A]	0.06
GGCAGAUCUCAACACAGCGUGGCAAAGUUGCUGUGGCUAGACUGCC [G7U G29U]	0.15
GGCAGAUCUCAACACAGCGGGGCAAAGUGGCUGUGGCUAGACUGCC [G7U U20G]	0.08
GGCAGAUCUCAACACAGCGAGGCAAAGUGGCUGUGGCUAGACUGCC [G7U U20A]	0.06
GGCAGAUCUCAACACAGCGCGGCAAAGUGGCUGUGGCUAGACUGCC [G7U U20C]	0.07
GGCAGAUCUCAACACAGCGUGGCAAAGUGGCUGUGGCUAGAAUGCC [G7U C42A]	0.06
GGCAGAUCUCAACACAGCGUGGCAAAGUGGCUGUGGCUAGAUUGCC [G7U C42U]	0.12
GGCAGAUCUCAACACAGCGUGGCAAAGUGGCUGUGGCUAGAGUGCC [G7U C42G]	0.12
GGCAGAUCUCAACACAGCGUUGCAAAGUGGCUGUGGCUAGACUGCC [G7U G21U]	0.1
GGCAGAUCUCAACACAGCGUCGCAAAGUGGCUGUGGCUAGACUGCC [G7U G21C]	0.08
GGCAGAUCUCAACACAGCGUAGCAAAGUGGCUGUGGCUAGACUGCC [G7U G21A]	0.14
GGCAGAUCUCAACACAGCGUGGCAAAGUGCCUGUGGCUAGACUGCC [G7U G30C]	0.06
GGCAGAUCUCAACACAGCGUGGCAAAGUGACUGUGGCUAGACUGCC [G7U G30A]	0.11
GGCAGAUCUCAACACAGCGUGGCAAAGUGUCUGUGGCUAGACUGCC [G7U G30U]	0.1
GGCAGAGAUCAACACAGCGUGGCAAAGUGGCUGUGGCUAGACUGCC [C8A]	0.29
GGCAGAUCUCAACACAGCGUGGCAAAUUGGCUGUGGCUAGACUGCC [G7U G27U]	0.08
GGCAGAUCUCAACACAGCGUGGCAAAAUGGCUGUGGCUAGACUGCC [G7U G27A]	0.07
GGCAGAUCUCAACACAGCGUGGCAAACUGGCUGUGGCUAGACUGCC [G7U G27C]	0.1
GGCAGAUCUCAACACAGCGUGGCAAUGUGGCUGUGGCUAGACUGCC [G7U A26U]	0.34

Variant	self-cleavage
GGCAGAUCUCAACACAGCGUGGCAAGGUGGCUGUGGCUAGACUGCC [G7U A26G]	0.05
GGCAGAUCUCAACACAGCGUGGCAACGUGGCUGUGGCUAGACUGCC [G7U A26C]	0.24
GGCAGAUCUCAACACAGCGUGGCAAAGUGGCUGUGGCUAGACUGCA [G7U C46A]	0.19
GGCAGAUCUCAACACAGCGUGGCAAAGUGGCUGUGGCUAGACUGCU [G7U C46U]	0.03
GGCAGAUCUCAACACAGCGUGGCAAAGUGGCUGUGGCUAGACUGCG [G7U C46G]	0.09
GGCAGAGAUCAACUCAGCGUGGCAAAGUGGCUGUGGCUAGACUGCC [C8A A14U]	0.25
GGCAGAGAUCAACCCAGCGUGGCAAAGUGGCUGUGGCUAGACUGCC [C8A A14C]	0.18
GGCAGAGAUCAACGCAGCGUGGCAAAGUGGCUGUGGCUAGACUGCC [C8A A14G]	0.56
GGCAGAUCUCAACACAGCGUGGCAAAGAGGCUGUGGCUAGACUGCC [G7U U28A]	0.03
GGCAGAUCUCAACACAGCGUGGCAAAGCGGCUGUGGCUAGACUGCC [G7U U28C]	0.05
GGCAGAUCUCAACACAGCGUGGCAAAGGGGCUGUGGCUAGACUGCC [G7U U28G]	0.07
GGCAGAUCUCAACACAGCGUGGCAAAGUGGCUGUGGCUAAACUGCC [G7U G40A]	0.16
GGCAGAUCUCAACACAGCGUGGCAAAGUGGCUGUGGCUAUACUGCC [G7U G40U]	0.18
GGCAGAUCUCAACACAGCGUGGCAAAGUGGCUGUGGCUACACUGCC [G7U G40C]	0.12
GGCAGAGAUCGACACAGCGUGGCAAAGUGGCUGUGGCUAGACUGCC [C8A A11G]	0.04
GGCAGAGAUCCACACAGCGUGGCAAAGUGGCUGUGGCUAGACUGCC [C8A A11C]	0.05
GGCAGAGAUCUACACAGCGUGGCAAAGUGGCUGUGGCUAGACUGCC [C8A A11U]	0.03
GGCAGAUCUCAACACAGCGUGGUAAAGUGGCUGUGGCUAGACUGCC [G7U C23U]	0.06
GGCAGAUCUCAACACAGCGUGGGAAAGUGGCUGUGGCUAGACUGCC [G7U C23G]	0.08
GGCAGAUCUCAACACAGCGUGGAAAAGUGGCUGUGGCUAGACUGCC [G7U C23A]	0.06
GGCAGAUCUCAACACAGCGUGGCAAAGUGGCUGUGGCUAGACUGAC [G7U C45A]	0.16
GGCAGAUCUCAACACAGCGUGGCAAAGUGGCUGUGGCUAGACUGUC [G7U C45U]	0.12
GGCAGAUCUCAACACAGCGUGGCAAAGUGGCUGUGGCUAGACUGGC [G7U C45G]	0.29

Variant	self-cleavage
GGCAGAUCACAACACAGCGUGGCAAAGUGGCUGUGGCUAGACUGCC [G7U U9A]	0.23
GGCAGAUCGCAACACAGCGUGGCAAAGUGGCUGUGGCUAGACUGCC [G7U U9G]	0.09
GGCAGAUCCCAACACAGCGUGGCAAAGUGGCUGUGGCUAGACUGCC [G7U U9C]	0.04
GGCAGAUCUCAACACAGCGUGGCAAAGUGGCCGUGGCUAGACUGCC [G7U U32C]	0.22
GGCAGAUCUCAACACAGCGUGGCAAAGUGGCGGUGGCUAGACUGCC [G7U U32G]	0.11
GGCAGAUCUCAACACAGCGUGGCAAAGUGGCAGUGGCUAGACUGCC [G7U U32A]	0.08
GGCAGAUCUCAACACAGCGUGGCAAAGUGGCUGUGGCCAGACUGCC [G7U U38C]	0.05
GGCAGAUCUCAACACAGCGUGGCAAAGUGGCUGUGGCGAGACUGCC [G7U U38G]	0.03
GGCAGAUCUCAACACAGCGUGGCAAAGUGGCUGUGGCAAGACUGCC [G7U U38A]	0.04
GGCAGAUCUCAACACAGUGUGGCAAAGUGGCUGUGGCUAGACUGCC [G7U C18U]	0.14
GGCAGAUCUCAACACAGGGUGGCAAAGUGGCUGUGGCUAGACUGCC [G7U C18G]	0.14
GGCAGAUCUCAACACAGAGUGGCAAAGUGGCUGUGGCUAGACUGCC [G7U C18A]	0.08
GGCAGAUCUCAACACAGCGUGGCAAAGUGGCUGUGGCUAGACUCCC [G7U G44C]	0.13
GGCAGAUCUCAACACAGCGUGGCAAAGUGGCUGUGGCUAGACUACC [G7U G44A]	0.09
GGCAGAUCUCAACACAGCGUGGCAAAGUGGCUGUGGCUAGACUUCC [G7U G44U]	0.2
GGCAGAUCUCAACACAGCGUGGCAAAGUGGCUGUGGGUAGACUGCC [G7U C37G]	0.01
GGCAGAUCUCAACACAGCGUGGCAAAGUGGCUGUGGUUAGACUGCC [G7U C37U]	0.03
GGCAGAUCUCAACACAGCGUGGCAAAGUGGCUGUGGAUAGACUGCC [G7U C37A]	0.05
GGCAGAUCUGAACACAGCGUGGCAAAGUGGCUGUGGCUAGACUGCC [G7U C10G]	0.03
GGCAGAUCUUAACACAGCGUGGCAAAGUGGCUGUGGCUAGACUGCC [G7U C10U]	0.04
GGCAGAUCUAAACACAGCGUGGCAAAGUGGCUGUGGCUAGACUGCC [G7U C10A]	0.04
GGCAGAUCUCAACACAGCGUGGCAAAGUGGCUGUGGCUAGACGGCC [G7U U43G]	0.32
GGCAGAUCUCAACACAGCGUGGCAAAGUGGCUGUGGCUAGACAGCC [G7U U43A]	0.11

Variant	self-cleavage
GGCAGAUCUCAACACAGCGUGGCAAAGUGGCUGUGGCUAGACCGCC [G7U U43C]	0.18
GGCAGAUCUCAACACAGCGUGGCAUAGUGGCUGUGGCUAGACUGCC [G7U A25U]	0.1
GGCAGAUCUCAACACAGCGUGGCAAAGUGGGUGUGGCUAGACUGCC [G7U C31G]	0.06
GGCAGAUCUCAACACAGCGUGGCAAAGUGGAUGUGGCUAGACUGCC [G7U C31A]	0.09
GGCAGAUCUCAACACAGCGUGGCAAAGUGGUUGUGGCUAGACUGCC [G7U C31U]	0.1
GGCAGAUCUCAACACAGCCUGGCAAAGUGGCUGUGGCUAGACUGCC [G7U G19C]	0.05
GGCAGAUCUCAACACAGCUUGGCAAAGUGGCUGUGGCUAGACUGCC [G7U G19U]	0.05
GGCAGAUCUCAACACAGCAUGGCAAAGUGGCUGUGGCUAGACUGCC [G7U G19A]	0.07
GGCAGAUGUCAACACAGCGUGGCAAAGUGGCUGUGGCUAGACUGCC [G7U C8G]	0.32
GGCAGAUAUCAACACAGCGUGGCAAAGUGGCUGUGGCUAGACUGCC [G7U C8A]	0.3
GGCAGAUUUCAACACAGCGUGGCAAAGUGGCUGUGGCUAGACUGCC [G7U C8U]	0.34
GGCAGAGAUCAACACGGCGUGGCAAAGUGGCUGUGGCUAGACUGCC [C8A A16G]	0.22
GGCAGAGAUCAACACCGCGUGGCAAAGUGGCUGUGGCUAGACUGCC [C8A A16C]	0.25
GGCAGAUCUCAACAUAGCGUGGCAAAGUGGCUGUGGCUAGACUGCC [G7U C15U]	0.1
GGCAGAUCUCAACAAAGCGUGGCAAAGUGGCUGUGGCUAGACUGCC [G7U C15A]	0.16
GGCAGAUCUCAACAGAGCGUGGCAAAGUGGCUGUGGCUAGACUGCC [G7U C15G]	0.09
GGCAGAUCUCAACACAACGUGGCAAAGUGGCUGUGGCUAGACUGCC [G7U G17A]	0.08
GGCAGAUCUCAACACACCGUGGCAAAGUGGCUGUGGCUAGACUGCC [G7U G17C]	0.07
GGCAGAUCUCAACACAUCGUGGCAAAGUGGCUGUGGCUAGACUGCC [G7U G17U]	0.12
GGCAGAUCUCAACACAGCGUGGCAAAGUGGCUGUAGCUAGACUGCC [G7U G35A]	0.1
GGCAGAUCUCAACACAGCGUGGCAAAGUGGCUGUCGCUAGACUGCC [G7U G35C]	0.08
GGCAGAUCUCAACACAGCGUGGCAAAGUGGCUGUUGCUAGACUGCC [G7U G35U]	0.1
GGCAGAUCUCAACACAGCGUGGCAAAGUGGCUGUGACUAGACUGCC [G7U G36A]	0.11

Variant	self-cleavage
GGCAGAUCUCAACACAGCGUGGCAAAGUGGCUGUGCCUAGACUGCC [G7U G36C]	0.09
GGCAGAUCUCAACACAGCGUGGCAAAGUGGCUGUGUCUAGACUGCC [G7U G36U]	0.05
GGCAGAGAUCACCACAGCGUGGCAAAGUGGCUGUGGCUAGACUGCC [C8A A12C]	0.04
GGCAGAGAUCAGCACAGCGUGGCAAAGUGGCUGUGGCUAGACUGCC [C8A A12G]	0.11
GGCAGAGAUCAUCACAGCGUGGCAAAGUGGCUGUGGCUAGACUGCC [C8A A12U]	0.23
GGCAGAUCUCAAUACAGCGUGGCAAAGUGGCUGUGGCUAGACUGCC [G7U C13U]	0.15
GGCAGAUCUCAAAACAGCGUGGCAAAGUGGCUGUGGCUAGACUGCC [G7U C13A]	0.14
GGCAGAUCUCAAGACAGCGUGGCAAAGUGGCUGUGGCUAGACUGCC [G7U C13G]	0.08
GGCAGAUCUCAACACAGCGUGCCAAAGUGGCUGUGGCUAGACUGCC [G7U G22C]	0.04
GGCAGAUCUCAACACAGCGUGACAAAGUGGCUGUGGCUAGACUGCC [G7U G22A]	0.08
GGCAGAUCUCAACACAGCGUGUCAAAGUGGCUGUGGCUAGACUGCC [G7U G22U]	0.14
GGCAGAUCUCAACACAGCGUGGCAAAGUGGCUGUGGCUCGACUGCC [G7U A39C]	0.19
GGCAGAUCUCAACACAGCGUGGCAAAGUGGCUGUGGCUGGACUGCC [G7U A39G]	0.06
GGCAGAUCUCAACACAGCGUGGCAAAGUGGCUGUGGCUUGACUGCC [G7U A39U]	0.1
GGCAGAUCUCAACACAGCGUGGCAAAGUGGCUUUGGCUAGACUGCC [G7U G33U]	0.13
GGCAGAUCUCAACACAGCGUGGCAAAGUGGCUCUGGCUAGACUGCC [G7U G33C]	0.15
GGCAGAUCUCAACACAGCGUGGCAAAGUGGCUAUGGCUAGACUGCC [G7U G33A]	0.13
GGCAGAUCUCAACACAGCGUGGCAAAGUGGCUGCGGCUAGACUGCC [G7U U34C]	0.09
GGCAGAUCUCAACACAGCGUGGCAAAGUGGCUGGGGCUAGACUGCC [G7U U34G]	0.05
GGCAGAUCUCAACACAGCGUGGCAAAGUGGCUGAGGCUAGACUGCC [G7U U34A]	0.08
